Several values for one entry are separate records, joined by “and”; a condition that tells them apart may be missing. Equal entries are not always repeated. Where two headings read alike, the source gives them in different places. Bridge positions count the residues as written; N and C are the ends. Square brackets hold non-standard residues; d marks the D form. Primed or numbered codes have the meaning given here. Ends that are not written are not given here. MCA = alpha-methylhydrocinnamic acid (2-methyl-3-phenylpropanoic acid); PEG 20 kDa″ = 20 kDa polyethylene glycol (PEG); Abu(4-SO3H) = N[C@@H](CCS(=O)(=O)O)C(=O)O; PEG 20 kDa = 20 kDa polyethylene glycol; PhLac = O=C(O)[C@@H](O)Cc1ccccc1
Key:
[1] = molecular target: T1, human glucagon receptor (human, UniProt P47871 26-477); assay: cell-based or functional assay
[2] = molecular target: T2, human GLP-1 receptor (human, UniProt P43220 24-463); assay: cell-based or functional assay
[3] = molecular target: T2, human GLP-1 receptor; assay: cell-based or functional assay; remark: listed apart in the source
[4] = molecular target: T1, human glucagon receptor; assay: cell-based or functional assay; remark: listed apart in the source
[5] = molecular target: T1, human glucagon receptor; assay: SPA competition vs 125I-glucagon, receptor membranes
[6] = molecular target: T1, human glucagon receptor; assay: cell-based or functional assay; remark: listed apart in the source

T1 sequence (P47871 26-477): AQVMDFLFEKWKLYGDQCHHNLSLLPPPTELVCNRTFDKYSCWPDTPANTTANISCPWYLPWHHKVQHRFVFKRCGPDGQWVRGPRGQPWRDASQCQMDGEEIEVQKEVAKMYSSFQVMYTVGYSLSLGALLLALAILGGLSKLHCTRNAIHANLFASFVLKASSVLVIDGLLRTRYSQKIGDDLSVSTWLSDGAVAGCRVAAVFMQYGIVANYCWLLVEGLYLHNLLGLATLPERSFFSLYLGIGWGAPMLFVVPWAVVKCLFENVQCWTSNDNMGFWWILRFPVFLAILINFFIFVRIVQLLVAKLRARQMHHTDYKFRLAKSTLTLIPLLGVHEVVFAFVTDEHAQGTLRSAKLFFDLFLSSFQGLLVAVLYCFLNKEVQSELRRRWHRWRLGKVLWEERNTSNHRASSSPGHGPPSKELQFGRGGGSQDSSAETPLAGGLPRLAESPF

Row | Binder | IC50 (cAMP, inhibit 0.2 mM Glucagon) [4] | IC50 [5] [nM] | other results
1 | [PhLac]TSDYSKYLDEQAAKEFIAWLMNT-NH2 (N-terminus assumed; SMILES CC[C@H](C)[C@H](NC(=O)[C@H](Cc1ccccc1)NC(=O)[C@H](CCC(=O)O)NC(=O)[C@H](CCCCN)NC(=O)[C@H](C)NC(=O)[C@H](C)NC(=O)[C@H](CCC(N)=O)NC(=O)[C@H](CCC(=O)O)NC(=O)[C@H](CC(=O)O)NC(=O)[C@H](CC(C)C)NC(=O)[C@H](Cc1ccc(O)cc1)NC(=O)[C@H](CCCCN)NC(=O)[C@H](CO)NC(=O)[C@H](Cc1ccc(O)cc1)NC(=O)[C@H](CC(=O)O)NC(=O)[C@H](CO)NC(=O)[C@@H](NC(=O)[C@@H](O)Cc1ccccc1)[C@@H](C)O)C(=O)N[C@@H](C)C(=O)N[C@@H](Cc1c[nH]c2ccccc12)C(=O)N[C@@H](CC(C)C)C(=O)N[C@@H](CCSC)C(=O)N[C@@H](CC(N)=O)C(=O)N[C@H](C(N)=O)[C@@H](C)O) [[PLA6, E16, GLP(23-32)]G(6-29)] | – | – | Glucagon antagonism IC50 (inhibit 0.2-0.8 nM glucagon) [1]: 64.5 nM; GLP-1 agonism EC50 [2]: 85.6 nM
2 | [PhLac]TSEYSKYLDERRAKDFVC(PEG 20 kDa″)WLMNT-NH2 (lactam 11-15) [[PLA6, E9,E16K20(Lactam), C24(20 kDa)]G(6-29)] | – | – | GLP-1 agonism EC50 [3]: 825 nM
3 | C(PEG 3.4 kDa)FTSEYSKYLDSRRAQDFVQWLMNT-NH2 (also: dimer: Cys5 of two chains joined by 3.4 kDa PEG) [3.4kDaPEG-dimer[C^5, E^9]Glucagon(aa5-29)-NH2] | 1340 nM | 435 | –
4 | SQLTFTS[Abu(4-SO3H)]YSKYLDSRRAQDFVQFLLNT-NH2 (N-terminus assumed; SMILES CC(C)C[C@H](NC(=O)[C@H](Cc1ccc(O)cc1)NC(=O)[C@H](CCCCN)NC(=O)[C@H](CO)NC(=O)[C@H](Cc1ccc(O)cc1)NC(=O)[C@H](CCS(=O)(=O)O)NC(=O)[C@H](CO)NC(=O)[C@@H](NC(=O)[C@H](Cc1ccccc1)NC(=O)[C@@H](NC(=O)[C@H](CC(C)C)NC(=O)[C@H](CCC(N)=O)NC(=O)[C@@H](N)CO)[C@@H](C)O)[C@@H](C)O)C(=O)N[C@@H](CC(=O)O)C(=O)N[C@@H](CO)C(=O)N[C@@H](CCCNC(=N)N)C(=O)N[C@@H](CCCNC(=N)N)C(=O)N[C@@H](C)C(=O)N[C@@H](CCC(N)=O)C(=O)N[C@@H](CC(=O)O)C(=O)N[C@@H](Cc1ccccc1)C(=O)N[C@H](C(=O)N[C@@H](CCC(N)=O)C(=O)N[C@@H](Cc1ccccc1)C(=O)N[C@@H](CC(C)C)C(=O)N[C@@H](CC(C)C)C(=O)N[C@@H](CC(N)=O)C(=O)N[C@H](C(N)=O)[C@@H](C)O)C(C)C) [[desHis^1, Leu^4, hCys^9(SO3-), Phe^25, Leu^27] Glucagon-NH2] | – | – | cAMP Induction EC50 [6]: 1610 nM; cAMP Inhibition IC50 [6]: 4460 nM
5 | C(PEG 1.2 kDa)FTSEYSKYLDSRRAQDFVQWLMNT-NH2 [[C^5(1.2kDaPEG), E^9]Glucagon(aa5-29)-NH2] | 2280 nM | 1080 | –
6 | C(PEG 20 kDa)FTSEYSKYLDSRRAQDFVQWLMNT-NH2 [[C^5(20kDaPEG), E^9]Glucagon(aa5-29)-NH2] | 976 nM | 331 | –
7 | HAEGTFTSEYSKYLDEQAAKEFIAWLMDT-NH2 (lactam 16-20; N-terminus assumed; SMILES CC[C@H](C)[C@H](NC(=O)[C@H](Cc1ccccc1)NC(=O)[C@H](CCC(=O)O)NC(=O)[C@@H]1CCCCNC(=O)CC[C@H](NC(=O)[C@H](CC(=O)O)NC(=O)[C@H](CC(C)C)NC(=O)[C@H](Cc2ccc(O)cc2)NC(=O)[C@H](CCCCN)NC(=O)[C@H](CO)NC(=O)[C@H](Cc2ccc(O)cc2)NC(=O)[C@H](CCC(=O)O)NC(=O)[C@H](CO)NC(=O)[C@@H](NC(=O)[C@H](Cc2ccccc2)NC(=O)[C@@H](NC(=O)CNC(=O)[C@H](CCC(=O)O)NC(=O)[C@H](C)NC(=O)[C@@H](N)Cc2c[nH]cn2)[C@@H](C)O)[C@@H](C)O)C(=O)N[C@@H](CCC(N)=O)C(=O)N[C@@H](C)C(=O)N[C@@H](C)C(=O)N1)C(=O)N[C@@H](C)C(=O)N[C@@H](Cc1c[nH]c2ccccc12)C(=O)N[C@@H](CC(C)C)C(=O)N[C@@H](CCSC)C(=O)N[C@@H](CC(=O)O)C(=O)N[C@H](C(N)=O)[C@@H](C)O) [[H1A2E3, E9, E16K20(Lactam), GLP(23-32)]G(1-29)] | – | – | Glucagon antagonism IC50 (inhibit 0.2-0.8 nM glucagon) [1]: 2150 nM; GLP-1 agonism EC50 [2]: 0.017 nM
8 | [PhLac]TC(PEG 5 kDa)EYSKYLDSRRAQDFVQWLMNT-NH2 [[PLA^6, C^8(5kDaPEG), E^9]Glucagon(aa6-29)-NH2] | 216 nM | 948 | –
9 | [PhLac]TC(PEG 20 kDa)EYSKYLDSRRAQDFVQWLMNT-NH2 [[PLA^6, C^8(20kDaPEG), E^9]Glucagon(aa6-29)-NH2] | 236 nM and 92 nM | 303 | –
10 | [PhLac]TSEYC(PEG 20 kDa)KYLDSRRAQDFVQWLMNT-NH2 [[PLA^6, E^9, C^11(20kDaPEG)]Glucagon(aa6-29)-NH2] | 664 nM | 776 | –
11 | [PhLac]TSEYSKYLDSRRAQDFVC(PEG 20 kDa)WLMNT-NH2 [[PLA^6, E^9, C^24(20kDaPEG)]Glucagon(aa6-29)-NH2] | 126 nM | 90 | –
12 | [MCA]TSEYSKYLDSRRAQDFVC(PEG 20 kDa)WLMNT-NH2 [[MCA^6, E^9, C^24(20kDaPEG)]Glucagon(aa6-29)-NH2] | – | 208 | –
13 | [PhLac]TSEYSKYLDSRRAQDFVC(PEG 1.2 kDa)WLMNT-NH2 [[PLA^6, E^9,C^24(1.2 kDaPEG)]Glucagon(aa6-29)-NH2] | 18 nM | 4.7 | –
14 | C(PEG 5 kDa)FTSEYSKYLDSRRAQDFVQWLMNT-NH2 [[C^5(5kDaPEG), E^9]Glucagon(aa5-29)-NH2] | 1610 nM | 634 | –
15 | [PhLac]TSDYSKYLDEQAAKEFIAWLMDT-NH2 (lactam 11-15; N-terminus assumed; SMILES CC[C@H](C)[C@H](NC(=O)[C@H](Cc1ccccc1)NC(=O)[C@H](CCC(=O)O)NC(=O)[C@@H]1CCCCNC(=O)CC[C@H](NC(=O)[C@H](CC(=O)O)NC(=O)[C@H](CC(C)C)NC(=O)[C@H](Cc2ccc(O)cc2)NC(=O)[C@H](CCCCN)NC(=O)[C@H](CO)NC(=O)[C@H](Cc2ccc(O)cc2)NC(=O)[C@H](CC(=O)O)NC(=O)[C@H](CO)NC(=O)[C@@H](NC(=O)[C@@H](O)Cc2ccccc2)[C@@H](C)O)C(=O)N[C@@H](CCC(N)=O)C(=O)N[C@@H](C)C(=O)N[C@@H](C)C(=O)N1)C(=O)N[C@@H](C)C(=O)N[C@@H](Cc1c[nH]c2ccccc12)C(=O)N[C@@H](CC(C)C)C(=O)N[C@@H](CCSC)C(=O)N[C@@H](CC(=O)O)C(=O)N[C@H](C(N)=O)[C@@H](C)O) [[PLA6, E16K20(lactam), GLP(23-32)]G(6-29)] | – | – | GLP-1 agonism EC50 [2]: 51.2 nM
16 | AEGTFTSEYSKYLDEQAAKEFIAWLMDT-NH2 (lactam 15-19; N-terminus assumed; SMILES CC[C@H](C)[C@H](NC(=O)[C@H](Cc1ccccc1)NC(=O)[C@H](CCC(=O)O)NC(=O)[C@@H]1CCCCNC(=O)CC[C@H](NC(=O)[C@H](CC(=O)O)NC(=O)[C@H](CC(C)C)NC(=O)[C@H](Cc2ccc(O)cc2)NC(=O)[C@H](CCCCN)NC(=O)[C@H](CO)NC(=O)[C@H](Cc2ccc(O)cc2)NC(=O)[C@H](CCC(=O)O)NC(=O)[C@H](CO)NC(=O)[C@@H](NC(=O)[C@H](Cc2ccccc2)NC(=O)[C@@H](NC(=O)CNC(=O)[C@H](CCC(=O)O)NC(=O)[C@H](C)N)[C@@H](C)O)[C@@H](C)O)C(=O)N[C@@H](CCC(N)=O)C(=O)N[C@@H](C)C(=O)N[C@@H](C)C(=O)N1)C(=O)N[C@@H](C)C(=O)N[C@@H](Cc1c[nH]c2ccccc12)C(=O)N[C@@H](CC(C)C)C(=O)N[C@@H](CCSC)C(=O)N[C@@H](CC(=O)O)C(=O)N[C@H](C(N)=O)[C@@H](C)O) [[A2E3, E9, E16K20(Lactam), GLP(23-32)]G(2-29)] | – | – | Glucagon antagonism IC50 (inhibit 0.2-0.8 nM glucagon) [1]: 423 nM; GLP-1 agonism EC50 [2]: 9.8 nM
17 | [PhLac]TC(PEG 1.2 kDa)EYSKYLDSRRAQDFVQWLMNT-NH2 [[PLA^6, C^8(1.2kDaPEG), E^9]Glucagon(aa6-29)-NH2] | – | 220 | –
18 | [PhLac]TSDYSKYLDERRAQDFVQWLMDTGPSSGAPPPSC(PEG 20 kDa)-NH2 (lactam 7-11) [[PLA6, K12E16(Lactam), D28,CEX-C40(20 kDa)]G(6-40)] | – | – | GLP-1 agonism EC50 [3]: 657 nM
19 | [PhLac]TSDYSKYLDEQAAKDFIAWLMDT-NH2 (lactam 7-11; N-terminus assumed; SMILES CC[C@H](C)[C@H](NC(=O)[C@H](Cc1ccccc1)NC(=O)[C@H](CC(=O)O)NC(=O)[C@H](CCCCN)NC(=O)[C@H](C)NC(=O)[C@H](C)NC(=O)[C@H](CCC(N)=O)NC(=O)[C@@H]1CCC(=O)NCCCC[C@H](NC(=O)[C@H](CO)NC(=O)[C@H](Cc2ccc(O)cc2)NC(=O)[C@H](CC(=O)O)NC(=O)[C@H](CO)NC(=O)[C@@H](NC(=O)[C@@H](O)Cc2ccccc2)[C@@H](C)O)C(=O)N[C@@H](Cc2ccc(O)cc2)C(=O)N[C@@H](CC(C)C)C(=O)N[C@@H](CC(=O)O)C(=O)N1)C(=O)N[C@@H](C)C(=O)N[C@@H](Cc1c[nH]c2ccccc12)C(=O)N[C@@H](CC(C)C)C(=O)N[C@@H](CCSC)C(=O)N[C@@H](CC(=O)O)C(=O)N[C@H](C(N)=O)[C@@H](C)O) [[PLA6, K12E16(lactam), GLP(23-32)]G(6-29)] | – | – | Glucagon antagonism IC50 (inhibit 0.2-0.8 nM glucagon) [1]: 169 nM

Source: patent US20110098217A1 (INDIANA UNIVERSITY RESEARCH AND TECHNOLOGY, published 2011)
